Assay results as given in patent publication US20230295335A1 (published 2023).

T1: full length human EpCAM on cells (human, UniProt P16422 24-314)
T1 construct: the cell line is named under assay; also called EpCAM on DiFi, HPAF-II and A549 tumor cells; CHO-S cells transfected with full length human EpCAM
T1 sequence: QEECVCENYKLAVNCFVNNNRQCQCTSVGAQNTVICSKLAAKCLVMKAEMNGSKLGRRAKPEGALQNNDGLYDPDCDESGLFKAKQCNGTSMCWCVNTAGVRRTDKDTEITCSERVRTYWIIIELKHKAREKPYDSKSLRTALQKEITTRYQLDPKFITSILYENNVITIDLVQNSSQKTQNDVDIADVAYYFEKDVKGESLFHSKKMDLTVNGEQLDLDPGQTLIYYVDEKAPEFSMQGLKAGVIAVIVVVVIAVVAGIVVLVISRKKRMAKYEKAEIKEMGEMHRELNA

T2: FcγRIIa-R131 (human, UniProt P12318 34-218, limits assumed)
T2 construct: Bought His-tagged protein; also called CD32A Protein, Human, Recombinant (167 Arg, His & AVI Tag)
T2 sequence (looked up): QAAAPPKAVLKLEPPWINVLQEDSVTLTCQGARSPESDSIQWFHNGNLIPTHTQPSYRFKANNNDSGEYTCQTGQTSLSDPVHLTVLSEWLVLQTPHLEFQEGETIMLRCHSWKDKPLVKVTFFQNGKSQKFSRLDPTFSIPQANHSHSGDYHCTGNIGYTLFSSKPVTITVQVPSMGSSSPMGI

T3: FcγRIIa-H131 (human, UniProt P12318 34-218, limits assumed)
T3 construct: Bought His-tagged protein; also called CD32A Protein, Human, Recombinant (167 His, His Tag)
T3 sequence (looked up): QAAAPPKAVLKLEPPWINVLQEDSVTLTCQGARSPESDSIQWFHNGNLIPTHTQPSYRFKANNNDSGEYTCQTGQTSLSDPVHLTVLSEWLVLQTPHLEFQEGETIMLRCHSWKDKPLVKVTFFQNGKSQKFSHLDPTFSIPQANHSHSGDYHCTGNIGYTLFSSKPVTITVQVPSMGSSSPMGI

T4: FcγRIIb (human, UniProt P31994 43-217, limits assumed)
T4 construct: Bought His-tagged protein; also called CD32B/Fcgr2b Protein, Human, Recombinant (His & AVI Tag)
T4 sequence (looked up): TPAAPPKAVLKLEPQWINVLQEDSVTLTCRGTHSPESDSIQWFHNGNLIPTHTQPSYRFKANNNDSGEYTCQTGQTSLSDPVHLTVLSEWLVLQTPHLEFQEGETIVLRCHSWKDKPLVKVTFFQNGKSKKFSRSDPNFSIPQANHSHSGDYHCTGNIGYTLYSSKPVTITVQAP

B1: bsIgG1-b12-FERL/b12-FEAR (bispecific antibody)
heavy 1: QVQLVQSGAEVKKPGASVKVSCQASGYRFSNFVIHWVRQAPGQRFEWMGWINPYNGNKEFSAKFQDRVTFTADTSANTAYMELRSLRSADTAVYYCARVGPYSWDDSPQDNYYMDVWGKGTTVIVSSASTKGPSVFPLAPSSKSTSGGTAALGCLVKDYFPEPVTVSWNSGALTSGVHTFPAVLQSSGLYSLSSVVTVPSSSLGTQTYICNVNHKPSNTKVDKRVEPKSCDKTHTCPPCPAPEFERGPSVFLFPPKPKDTLMISRTPEVTCVVVDVSHEDPEVKFNWYVDGVEVHNAKTKPREEQYNSTYRVVSVLTVLHQDWLNGKEYKCKVSNKALPAPIEKTISKAKGQPREPQVYTLPPSREEMTKNQVSLTCLVKGFYPSDIAVEWESNGQPENNYKTTPPVLDSDGSFLLYSKLTVDKSRWQQGNVFSCSVMHEALHNHYTQKSLSLSPG
heavy 2: QVQLVQSGAEVKKPGASVKVSCQASGYRFSNFVIHWVRQAPGQRFEWMGWINPYNGNKEFSAKFQDRVTFTADTSANTAYMELRSLRSADTAVYYCARVGPYSWDDSPQDNYYMDVWGKGTTVIVSSASTKGPSVFPLAPSSKSTSGGTAALGCLVKDYFPEPVTVSWNSGALTSGVHTFPAVLQSSGLYSLSSVVTVPSSSLGTQTYICNVNHKPSNTKVDKRVEPKSCDKTHTCPPCPAPEFEGGPSVFLFPPKPKDTLMISRTPEVTCVVVAVSHEDPEVKFNWYVDGVEVHNAKTKPREEQYNSTYRVVSVLTVLHQDWLNGKEYKCKVSNKALPAPIEKTISKAKGQPREPQVYTLPPSREEMTKNQVSLTCLVKGFYPSDIAVEWESNGQPENNYKTTPPVLDSDGSFFLYSRLTVDKSRWQQGNVFSCSVMHEALHNHYTQKSLSLSPG
light: EIVLTQSPGTLSLSPGERATFSCRSSHSIRSRRVAWYQHKPGQAPRLVIHGVSNRASGISDRFSGSGSGTDFTLTITRVEPEDFALYYCQVYGASSYTFGQGTKLERKRTVAAPSVFIFPPSDEQLKSGTASVVCLLNNFYPREAKVQWKVDNALQSGNSQESVTEQDSKDSTYSLSSTLTLSKADYEKHKVYACEVTHQGLSSPVTKSFNRGEC
notes: also called b12-FERLxb12-FEAR; bsIgG1-ctrl-b12-FERL/b12-FEAR
B2: IgG1-EpCAM-A37-FERL (antibody)
heavy: not shown
light: EIELTQSPGTLSLSPGERATLSCRASQTISNNYLAWYQQKRGQAPRLLIYAASSRATGIPDRFSGTGSGTDFTLTISRLEPEDFAVYYCAQGELYPRQFGGGTKLEIKRTVAAPSVFIFPPSDEQLKSGTASVVCLLNNFYPREAKVQWKVDNALQSGNSQESVTEQDSKDSTYSLSSTLTLSKADYEKHKVYACEVTHQGLSSPVTKSFNRGEC
B3: IgG1-CD137-009-HC7LC2-FEAR (antibody)
heavy: EVQLVESGGGLVQPGRSLRLSCTASGFSLNDYWMSWVRQAPGKGLEWVGYIDVGGSLYYAASVKGRFTISRDDSKSIAYLQMNSLKTEDTAVYYCARGGLTYGFDLWGQGTLVTVSSASTKGPSVFPLAPSSKSTSGGTAALGCLVKDYFPEPVTVSWNSGALTSGVHTFPAVLQSSGLYSLSSVVTVPSSSLGTQTYICNVNHKPSNTKVDKRVEPKSCDKTHTCPPCPAPEFEGGPSVFLFPPKPKDTLMISRTPEVTCVVVAVSHEDPEVKFNWYVDGVEVHNAKTKPREEQYNSTYRVVSVLTVLHQDWLNGKEYKCKVSNKALPAPIEKTISKAKGQPREPQVYTLPPSREEMTKNQVSLTCLVKGFYPSDIAVEWESNGQPENNYKTTPPVLDSDGSFFLYSRLTVDKSRWQQGNVFSCSVMHEALHNHYTQKSLSLSPG
light: DIVMTQSPSSLSASVGDRVTITCQASEDISSYLAWYQQKPGKAPKRLIYGASDLASGVPSRFSASGSGTDYTFTISSLQPEDIATYYCHYYATISGLGVAFGGGTKVEIKRTVAAPSVFIFPPSDEQLKSGTASVVCLLNNFYPREAKVQWKVDNALQSGNSQESVTEQDSKDSTYSLSSTLTLSKADYEKHKVYACEVTHQGLSSPVTKSFNRGEC
B4: bsIgG1-b12-FERL/CD137-009-HC7LC2-FEAR (bispecific antibody)
heavy 1: QVQLVQSGAEVKKPGASVKVSCQASGYRFSNFVIHWVRQAPGQRFEWMGWINPYNGNKEFSAKFQDRVTFTADTSANTAYMELRSLRSADTAVYYCARVGPYSWDDSPQDNYYMDVWGKGTTVIVSSASTKGPSVFPLAPSSKSTSGGTAALGCLVKDYFPEPVTVSWNSGALTSGVHTFPAVLQSSGLYSLSSVVTVPSSSLGTQTYICNVNHKPSNTKVDKRVEPKSCDKTHTCPPCPAPEFERGPSVFLFPPKPKDTLMISRTPEVTCVVVDVSHEDPEVKFNWYVDGVEVHNAKTKPREEQYNSTYRVVSVLTVLHQDWLNGKEYKCKVSNKALPAPIEKTISKAKGQPREPQVYTLPPSREEMTKNQVSLTCLVKGFYPSDIAVEWESNGQPENNYKTTPPVLDSDGSFLLYSKLTVDKSRWQQGNVFSCSVMHEALHNHYTQKSLSLSPG
light 1: EIVLTQSPGTLSLSPGERATFSCRSSHSIRSRRVAWYQHKPGQAPRLVIHGVSNRASGISDRFSGSGSGTDFTLTITRVEPEDFALYYCQVYGASSYTFGQGTKLERKRTVAAPSVFIFPPSDEQLKSGTASVVCLLNNFYPREAKVQWKVDNALQSGNSQESVTEQDSKDSTYSLSSTLTLSKADYEKHKVYACEVTHQGLSSPVTKSFNRGEC
heavy 2: EVQLVESGGGLVQPGRSLRLSCTASGFSLNDYWMSWVRQAPGKGLEWVGYIDVGGSLYYAASVKGRFTISRDDSKSIAYLQMNSLKTEDTAVYYCARGGLTYGFDLWGQGTLVTVSSASTKGPSVFPLAPSSKSTSGGTAALGCLVKDYFPEPVTVSWNSGALTSGVHTFPAVLQSSGLYSLSSVVTVPSSSLGTQTYICNVNHKPSNTKVDKRVEPKSCDKTHTCPPCPAPEFEGGPSVFLFPPKPKDTLMISRTPEVTCVVVAVSHEDPEVKFNWYVDGVEVHNAKTKPREEQYNSTYRVVSVLTVLHQDWLNGKEYKCKVSNKALPAPIEKTISKAKGQPREPQVYTLPPSREEMTKNQVSLTCLVKGFYPSDIAVEWESNGQPENNYKTTPPVLDSDGSFFLYSRLTVDKSRWQQGNVFSCSVMHEALHNHYTQKSLSLSPG
light 2: DIVMTQSPSSLSASVGDRVTITCQASEDISSYLAWYQQKPGKAPKRLIYGASDLASGVPSRFSASGSGTDYTFTISSLQPEDIATYYCHYYATISGLGVAFGGGTKVEIKRTVAAPSVFIFPPSDEQLKSGTASVVCLLNNFYPREAKVQWKVDNALQSGNSQESVTEQDSKDSTYSLSSTLTLSKADYEKHKVYACEVTHQGLSSPVTKSFNRGEC
notes: also called bsIgG1-b12-FERL/CD137-HC7LC2-FEAR; bsIgG1-b12-FERLxCD137-009-HC7LC2-FEAR

What was measured:
[1] = target: T1, full length human EpCAM on cells; assay: flow cytometry on DiFi tumor cells
Procedure: Binding to the EpCAM-expressing human tumor cell lines DiFi, HPAF-II and A549 by bivalent EpCAM antibodies or bispecific antibodies carrying one EpCAM-binding arm was analyzed by flow cytometry. […] Next, cells were washed once (A-D) or twice (E) in FACS buffer, re-suspended in 100 μL FACS buffer and analyzed on a BD LSRFortessa FACS (BD Biosciences, USA), Celesta (BD Biosciences, USA) or iQue (Sartorius, Germany). Binding curves were analyzed using non-linear regression (sigmoidal dose-response with variable slope) using GraphPad Prism V7.02 software (GraphPad Software, San Diego, CA, USA).

[2] = target: T5, neonatal Fc receptor (FcRn), His-tagged (SinoBiological, cat. no. CT009-H08H-B) (UniProt P55899 24-297); assay: SPR kinetics assay at pH 6.0; His-tagged FcRn captured on anti-His chip, antibody 0-500 nM
T5 sequence (P55899 24-297 limits assumed, form in doubt): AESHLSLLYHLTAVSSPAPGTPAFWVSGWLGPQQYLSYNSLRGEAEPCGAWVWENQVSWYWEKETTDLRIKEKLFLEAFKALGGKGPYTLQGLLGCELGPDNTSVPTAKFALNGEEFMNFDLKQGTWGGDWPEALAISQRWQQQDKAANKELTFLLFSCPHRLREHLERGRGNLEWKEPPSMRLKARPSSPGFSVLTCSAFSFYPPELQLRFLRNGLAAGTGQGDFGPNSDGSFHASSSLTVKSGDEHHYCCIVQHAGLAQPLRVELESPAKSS
Procedure: (§1) In a separate experiment, binding to neonatal Fc receptor (FcRn) was tested by SPR, using a kinetics assay with the following changes to the methods described above. […] Experiments were performed three times at pH 6.0 (under acidic conditions, at which IgG binds to FcRn) and two times at pH 7.4 (binding to IgG is not expected at this pH).

[3] = target: T5, neonatal Fc receptor (FcRn), His-tagged …; assay: SPR kinetics assay at pH 6.0; His-tagged FcRn captured on anti-His chip, antibody 0-500 nM; mean of three experiments
Procedure: as §1

[4] = target: T6, FcγRIIIa-F158 (human, UniProt P08637 17-208); assay: SPR (Biacore 8K); His-tagged FcγR captured on anti-His chip
T6 construct: extracellular domain; Bought His-tagged protein
T6 sequence (P08637 17-208): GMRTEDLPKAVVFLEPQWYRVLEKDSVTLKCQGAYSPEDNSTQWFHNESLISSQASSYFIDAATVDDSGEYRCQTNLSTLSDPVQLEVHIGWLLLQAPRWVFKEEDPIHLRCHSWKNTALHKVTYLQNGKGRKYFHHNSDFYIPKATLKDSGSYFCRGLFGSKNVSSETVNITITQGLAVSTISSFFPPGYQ
Procedure: (§2) At the end of each cycle, the surface was regenerated using 10 mM Glycine-HCl pH 1.5 (Cytiva, cat. no. BR100354).

[5] = target: T2, FcγRIIa-R131; assay: as above
Procedure: as §2

[6] = target: T7, FcγRIa (human, UniProt P12314 16-288, limits assumed, biotinylated); assay: as above
T7 construct: Bought His-tagged protein captured on anti-His chip; also called CD64 Protein, Human, Recombinant (His Tag), Biotinylated
T7 sequence (P12314 16-288 limits assumed): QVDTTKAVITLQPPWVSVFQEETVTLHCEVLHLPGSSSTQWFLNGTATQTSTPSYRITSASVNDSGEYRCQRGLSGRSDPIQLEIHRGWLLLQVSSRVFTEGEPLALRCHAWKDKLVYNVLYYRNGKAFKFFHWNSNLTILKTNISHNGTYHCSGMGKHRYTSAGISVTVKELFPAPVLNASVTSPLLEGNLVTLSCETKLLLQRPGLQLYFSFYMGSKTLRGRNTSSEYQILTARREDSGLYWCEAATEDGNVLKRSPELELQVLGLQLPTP
Procedure: as §2

[7] = target: T3, FcγRIIa-H131; assay: as above
Procedure: as §2

[8] = target: T4, FcγRIIb; assay: as above
Procedure: as §2

[9] = target: T8, FcγRIIIa-V158 (human, UniProt P08637 17-208); assay: as above
T8 construct: Bought His-tagged protein
T8 sequence (P08637 17-208 F176V limits assumed): as the sequence (P08637 17-208) above, with F160V counted along it
Procedure: as §2

Binder	binding result [1]	koff [2]	kon [2]	Kd [3]	binding result [4]	binding result [5]	binding result [6]	binding result [7]	binding result [8]	binding result [9]
B1	no binding (tested: up to 30 µg/mL)									
B2		0.0413 s⁻¹	180000 M⁻¹ s⁻¹	230 nM	no binding (tested: 10,000 nM (highest concentration tested))	no binding (tested: 10,000 nM (highest concentration tested))	no binding (tested: 3,000 nM (highest concentration tested))	no binding (tested: 10,000 nM (highest concentration tested))	no binding (tested: 10,000 nM (highest concentration tested))	no binding (tested: 10,000 nM (highest concentration tested))
B3		0.0539 s⁻¹	143000 M⁻¹ s⁻¹	375 nM	no binding (tested: 10,000 nM (highest concentration tested))	no binding (tested: 10,000 nM (highest concentration tested))	no binding (tested: 3,000 nM (highest concentration tested))	no binding (tested: 10,000 nM (highest concentration tested))	no binding (tested: 10,000 nM (highest concentration tested))	no binding (tested: 10,000 nM (highest concentration tested))
B4	no binding (tested: up to 30 µg/mL)									
